Measurements reported in the supplement of paper PMC11136658.

Tested on: peptide library, one residue held at a place counted from the Y acceptor
Assay: relative phosphorylation of the sub-library (ratio to the mean residue at this position); higher = residue favoured
Method in brief: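 Biotinylated Tyr-centred peptide library mixtures, each fixing one residue at one position from −5 to +5, were incubated with purified recombinant kinases in 384-well plates for 90 min with 50 μM ATP plus γ-32P-ATP. Streptavidin membranes captured the peptides, which were rinsed and quantified by phosphorimaging and ImageQuant. At each position, intensities were divided by the sum of the 18 randomized residues (16 for the Ser/Thr-free library) and multiplied by that number. Each value is phosphorylation relative to the mean randomized residue.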

Sequence of JAK3, construct: aa795-end, human (P52333 795-1124, looked up): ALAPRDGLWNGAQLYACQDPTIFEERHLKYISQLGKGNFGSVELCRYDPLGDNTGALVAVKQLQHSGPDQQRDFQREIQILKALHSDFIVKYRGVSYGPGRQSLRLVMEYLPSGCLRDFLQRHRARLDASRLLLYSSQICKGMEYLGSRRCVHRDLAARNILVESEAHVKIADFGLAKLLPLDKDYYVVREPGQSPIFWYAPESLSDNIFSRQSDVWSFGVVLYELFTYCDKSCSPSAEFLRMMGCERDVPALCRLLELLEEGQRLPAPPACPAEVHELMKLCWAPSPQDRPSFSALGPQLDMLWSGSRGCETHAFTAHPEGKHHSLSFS
Sequence of KDR, construct: aa789-end, human (P35968 789-1356, looked up): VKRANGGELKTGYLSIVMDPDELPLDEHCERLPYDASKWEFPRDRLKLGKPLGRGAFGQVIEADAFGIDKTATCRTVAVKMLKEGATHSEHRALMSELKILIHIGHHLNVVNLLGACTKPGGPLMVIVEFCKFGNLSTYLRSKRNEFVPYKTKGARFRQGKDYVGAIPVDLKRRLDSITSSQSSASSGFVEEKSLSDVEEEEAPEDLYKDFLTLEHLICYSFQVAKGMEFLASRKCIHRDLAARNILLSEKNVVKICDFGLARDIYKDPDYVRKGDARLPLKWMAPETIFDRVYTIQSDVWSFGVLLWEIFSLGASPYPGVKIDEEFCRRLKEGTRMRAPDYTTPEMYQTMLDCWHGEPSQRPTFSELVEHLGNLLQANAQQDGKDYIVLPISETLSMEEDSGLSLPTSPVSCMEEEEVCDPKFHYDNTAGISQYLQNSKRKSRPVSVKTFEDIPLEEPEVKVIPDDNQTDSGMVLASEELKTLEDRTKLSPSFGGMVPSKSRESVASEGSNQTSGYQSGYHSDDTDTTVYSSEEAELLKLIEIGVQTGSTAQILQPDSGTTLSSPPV

JAK3, construct: aa795-end, human (from UniProt P52333)
relative phosphorylation
Conditions | at +1 | at +2 | at +3 | at +4 | at +5 | at -1 | at -2 | at -3 | at -4 | at -5
A fixed | 0.882 | 0.772 | 0.718 | 0.933 | 1.08 | 0.848 | 0.973 | 1.02 | 1.07 | 1.1
D fixed | 0.438 | 0.975 | 0.429 | 0.902 | 0.84 | 3 | 1.02 | 1.3 | 1.08 | 1.09
E fixed | 0.497 | 0.834 | 0.342 | 0.687 | 0.843 | 2.01 | 1.05 | 1.18 | 1.22 | 0.94
F fixed | 2.22 | 1.17 | 1.18 | 1.07 | 0.874 | 0.763 | 0.839 | 0.962 | 1.05 | 1.02
G fixed | 0.36 | 0.532 | 0.643 | 1.08 | 1.1 | 0.699 | 1.24 | 1.07 | 1.07 | 1.2
H fixed | 1.44 | 0.984 | 1.19 | 1.01 | 0.967 | 0.968 | 1.03 | 1.11 | 1.04 | 1.12
I fixed | 1.17 | 0.644 | 1.54 | 0.676 | 0.66 | 0.817 | 0.597 | 0.632 | 0.682 | 0.736
K fixed | 0.436 | 0.82 | 0.794 | 1.29 | 1.24 | 0.493 | 0.982 | 0.857 | 0.91 | 1.12
L fixed | 0.877 | 0.998 | 1.71 | 0.839 | 0.771 | 0.69 | 0.862 | 0.707 | 0.726 | 0.793
M fixed | 1.06 | 1.21 | 1.5 | 0.883 | 0.852 | 0.593 | 0.86 | 0.72 | 0.847 | 0.828
N fixed | 0.54 | 1.17 | 0.7 | 0.965 | 1.22 | 1.31 | 1.31 | 1.41 | 1.04 | 0.946
P fixed | 0.455 | 0.945 | 0.773 | 1.02 | 1.22 | 0.759 | 1.07 | 1.07 | 1.11 | 1.03
Q fixed | 1.04 | 1.02 | 0.883 | 1.22 | 1.13 | 0.874 | 1.31 | 1.15 | 1.11 | 0.971
R fixed | 0.665 | 0.876 | 1.03 | 1.3 | 1.46 | 0.55 | 1.1 | 1.01 | 1.15 | 1.14
S fixed | 0.697 | 0.848 | 0.916 | 1.11 | 1.4 | 0.831 | 1.22 | 1.21 | 1.07 | 1.05
T fixed | 0.73 | 0.902 | 1.15 | 0.972 | 0.959 | 0.935 | 0.989 | 1.07 | 0.839 | 0.973
V fixed | 1.65 | 0.807 | 1.2 | 0.819 | 0.716 | 0.842 | 0.671 | 0.72 | 0.7 | 0.77
W fixed | 2.27 | 2.25 | 1.37 | 1.31 | 1.03 | 0.791 | 1.09 | 1.1 | 1.19 | 1.19
pThr fixed | 0.626 | 1.2 | 0.391 | 0.528 | 0.682 | 2.23 | 1 | 1.16 | 1.01 | 0.871
pTyr fixed | 1.04 | 0.925 | 0.369 | 0.583 | 0.725 | 2.37 | 1.05 | 1.32 | 1.01 | 0.825

KDR, construct: aa789-end, human (from UniProt P35968)
relative phosphorylation
Conditions | at +1 | at +2 | at +3 | at +4 | at +5 | at -1 | at -2 | at -3 | at -4 | at -5
A fixed | 0.852 | 0.685 | 0.543 | 0.829 | 0.944 | 0.816 | 0.954 | 0.915 | 1.04 | 1
D fixed | 0.301 | 0.599 | 0.314 | 0.665 | 0.745 | 2.25 | 1.1 | 1.21 | 1.04 | 0.987
E fixed | 0.416 | 0.621 | 0.246 | 0.608 | 0.696 | 1.46 | 1.2 | 1.29 | 1.26 | 0.973
F fixed | 1.6 | 1.34 | 2.2 | 1.1 | 1.04 | 0.846 | 0.617 | 0.819 | 0.818 | 0.816
G fixed | 0.612 | 0.417 | 0.465 | 1.01 | 1.13 | 0.631 | 1.36 | 1.17 | 1.33 | 1.21
H fixed | 1.37 | 0.86 | 0.523 | 0.95 | 0.978 | 1.37 | 1.12 | 1.02 | 0.975 | 1.03
I fixed | 1.22 | 0.919 | 2.05 | 0.733 | 0.86 | 1.05 | 0.546 | 0.573 | 0.741 | 0.756
K fixed | 0.944 | 1.32 | 0.469 | 1.52 | 1.17 | 0.726 | 1.21 | 1.18 | 1.2 | 1.49
L fixed | 1.06 | 1.39 | 2.56 | 0.906 | 0.907 | 0.886 | 0.723 | 0.745 | 0.788 | 0.771
M fixed | 1.17 | 1.06 | 2.1 | 0.996 | 1.04 | 0.654 | 0.645 | 0.699 | 0.826 | 0.857
N fixed | 0.634 | 1.12 | 0.465 | 0.862 | 1.05 | 1.36 | 1.32 | 1.23 | 0.886 | 1.08
P fixed | 0.645 | 0.63 | 0.787 | 1.29 | 1.26 | 0.842 | 1.08 | 1.15 | 1.28 | 1.14
Q fixed | 1.27 | 1.01 | 0.561 | 1.02 | 0.916 | 1.07 | 1.19 | 1.09 | 1.12 | 1.01
R fixed | 1.14 | 1.77 | 0.7 | 1.6 | 1.39 | 0.841 | 1.55 | 1.29 | 1.36 | 1.44
S fixed | 0.712 | 0.921 | 0.599 | 0.982 | 1.09 | 0.671 | 1.14 | 1.05 | 0.856 | 0.973
T fixed | 0.939 | 0.924 | 0.675 | 0.989 | 1.18 | 0.86 | 0.938 | 1.06 | 0.743 | 0.947
V fixed | 1.79 | 1.02 | 1.65 | 0.841 | 0.733 | 0.962 | 0.637 | 0.633 | 0.756 | 0.768
W fixed | 1.31 | 1.39 | 1.09 | 1.09 | 0.872 | 0.689 | 0.658 | 0.883 | 0.991 | 0.761
pThr fixed | 0.636 | 1.09 | 0.307 | 0.54 | 0.602 | 1.64 | 1.14 | 1.41 | 1.1 | 1.25
pTyr fixed | 2.12 | 1.83 | 0.405 | 0.526 | 0.731 | 2.89 | 1.99 | 2.27 | 2.12 | 1.45
